Measurements: article PMC2173853 (The Journal of Cell Biology, 2002)
Read-outs that look alike come from different tables or passages of the source.

T1: preassembled SNARE complex of GST–Sec22p, Sed5p, Bos1p and Bet1p (yeast, UniProt P22214;Q01590;P25385;P22804)
T1 sequence 1: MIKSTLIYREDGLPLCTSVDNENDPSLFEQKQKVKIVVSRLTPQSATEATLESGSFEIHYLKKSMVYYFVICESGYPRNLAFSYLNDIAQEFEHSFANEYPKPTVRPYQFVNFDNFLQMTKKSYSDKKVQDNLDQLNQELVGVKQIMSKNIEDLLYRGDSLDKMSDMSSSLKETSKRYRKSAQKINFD
T1 sequence 2: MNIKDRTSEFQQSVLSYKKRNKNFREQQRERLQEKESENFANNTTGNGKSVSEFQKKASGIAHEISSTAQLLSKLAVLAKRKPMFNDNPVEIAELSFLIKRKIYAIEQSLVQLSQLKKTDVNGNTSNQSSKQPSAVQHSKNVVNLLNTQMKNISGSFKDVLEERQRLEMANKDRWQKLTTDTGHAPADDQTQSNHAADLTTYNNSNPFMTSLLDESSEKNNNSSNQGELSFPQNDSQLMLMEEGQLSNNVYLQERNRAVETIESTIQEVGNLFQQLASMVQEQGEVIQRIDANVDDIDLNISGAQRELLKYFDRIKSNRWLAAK
T1 sequence 3: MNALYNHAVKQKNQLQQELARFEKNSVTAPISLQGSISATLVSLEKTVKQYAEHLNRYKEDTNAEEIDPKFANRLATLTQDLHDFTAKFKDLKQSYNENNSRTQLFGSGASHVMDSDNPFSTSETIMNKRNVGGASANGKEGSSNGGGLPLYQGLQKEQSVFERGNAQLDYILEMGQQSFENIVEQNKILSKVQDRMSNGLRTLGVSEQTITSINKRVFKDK
T1 sequence 4: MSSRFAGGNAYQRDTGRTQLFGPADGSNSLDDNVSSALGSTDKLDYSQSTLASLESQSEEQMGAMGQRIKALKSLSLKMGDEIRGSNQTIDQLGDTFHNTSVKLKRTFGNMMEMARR

T2: GST–Sec22p (yeast, UniProt P22214)
T2 sequence: T1 sequence 1

T3: heterodimeric GST–Sed5p–His10-Sly1p complex bound to beads (S. cerevisiae, UniProt Q01590;P22213)
T3 sequence 1: T1 sequence 2
T3 sequence 2: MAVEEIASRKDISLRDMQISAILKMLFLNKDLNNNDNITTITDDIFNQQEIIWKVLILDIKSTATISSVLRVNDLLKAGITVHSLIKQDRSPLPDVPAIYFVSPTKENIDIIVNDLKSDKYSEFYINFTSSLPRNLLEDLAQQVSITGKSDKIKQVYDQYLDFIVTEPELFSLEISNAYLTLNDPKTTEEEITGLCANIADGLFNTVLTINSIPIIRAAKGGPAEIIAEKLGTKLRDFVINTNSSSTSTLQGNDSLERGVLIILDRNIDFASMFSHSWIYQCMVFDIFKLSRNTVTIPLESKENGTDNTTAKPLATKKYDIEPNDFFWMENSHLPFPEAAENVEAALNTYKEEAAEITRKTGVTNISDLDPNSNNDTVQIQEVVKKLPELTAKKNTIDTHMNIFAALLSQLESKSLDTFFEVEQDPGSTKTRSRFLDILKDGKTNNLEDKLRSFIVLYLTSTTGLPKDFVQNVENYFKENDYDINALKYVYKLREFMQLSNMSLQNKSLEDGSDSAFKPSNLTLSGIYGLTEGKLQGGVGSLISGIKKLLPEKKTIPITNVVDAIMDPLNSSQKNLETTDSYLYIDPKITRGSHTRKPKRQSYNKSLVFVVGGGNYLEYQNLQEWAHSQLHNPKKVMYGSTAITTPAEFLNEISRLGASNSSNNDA

T4: Sly1p cleaved from purified GST–Sly1p (untagged soluble Sly1p) (S. cerevisiae, UniProt P22213 1-666)
T4 sequence: T3 sequence 2

T5: GST–Ykt6p (amino acids 1–195) (S. cerevisiae, UniProt P36015 1-195)
T5 sequence: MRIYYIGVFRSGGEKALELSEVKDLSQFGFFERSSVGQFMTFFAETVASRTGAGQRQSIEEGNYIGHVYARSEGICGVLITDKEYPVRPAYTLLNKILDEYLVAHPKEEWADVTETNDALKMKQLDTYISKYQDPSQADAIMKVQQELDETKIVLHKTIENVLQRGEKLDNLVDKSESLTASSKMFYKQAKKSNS

B1: His10-Sly1p (NH2-terminally His10-tagged full-length Sly1p) (natural protein)
chain: T3 sequence 2
B2: preformed Sed5p–Sly1p heterodimer in solution (His-Sly1p–His-Sed5p) (complex)
chain 1: T3 sequence 2
chain 2: T1 sequence 2
B3: His6-Sed5p (NH2-terminally His6-tagged Sed5p lacking the COOH-terminal membrane anchor) (domain or fragment)
chain: T1 sequence 2
B4: GST–Sed5p (entire cytosolic region) (domain or fragment)
chain: T1 sequence 2
B5: His6-Bos1p lacking the transmembrane (TM) (domain or fragment)
chain: T1 sequence 3
B6: GST–Sed5N (NH2-terminal domain) (domain or fragment)
chain: MNIKDRTSEFQQSVLSYKKRNKNFREQQRERLQEKESENFANNTTGNGKSVSEFQKKASGIAHEISSTAQLLSKLAVLAKRKPMFNDNPVEIAELSFLIKRKIYAIEQSLVQLSQLKKTDVNGNTSNQSSKQPSAVQHSKNVVNLLNTQMKNISGSFKDVLEERQRLEMANKDRWQKLTTDTGHAPADDQTQSNHAADLTTYNNSNPFMTSLLDESSEKNNNSSNQGELSFPQNDSQLMLMEEGQLSNNV
B7: His6-Bet1p lacking the COOH-terminal membrane anchor (domain or fragment)
chain: T1 sequence 4
B8: His6-Sec17p (full length) (natural protein)
chain: MSDPVELLKRAEKKGVPSSGFMKLFSGSDSYKFEEAADLCVQAATIYRLRKELNLAGDSFLKAADYQKKAGNEDEAGNTYVEAYKCFKSGGNSVNAVDSLENAIQIFTHRGQFRRGANFKFELGEILENDLHDYAKAIDCYELAGEWYAQDQSVALSNKCFIKCADLKALDGQYIEASDIYSKLIKSSMGNRLSQWSLKDYFLKKGLCQLAATDAVAAARTLQEGQSEDPNFADSRESNFLKSLIDAVNEGDSEQLSEHCKEFDNFMRLDKWKITILNKIKESIQQQEDDLL
B9: His6-Sec22p (amino acids 1–188) (domain or fragment)
chain: T1 sequence 1

What was measured:
Assay in all cases: pull-down
[1] = molecular target: T1, preassembled SNARE complex of …
[2] = molecular target: B4
GST–Sec22p [3] = molecular target: T2, GST–Sec22p
GST–Sec22p [4] = molecular target: T2, GST–Sec22p; remark: listed apart in the source
GST–Sec22p [5] = molecular target: T2, GST–Sec22p; remark: listed apart in the source
GST–Sec22p [6] = molecular target: T2, GST–Sec22p; remark: listed apart in the source
[7] = molecular target: B1
[8] = molecular target: T3, heterodimeric GST–Sed5p–His10-Sly1p …
[9] = molecular target: T4, Sly1p cleaved from purified GST–Sly1p …
[10] = molecular target: preassembled SNARE complex of GST–Sec22p, Sed5p, Bos1p and Bet1p with Sly1p (yeast | S. cerevisiae, UniProt P22214;Q01590;P25385;P22804;P22213)
[11] = molecular target: T5, GST–Ykt6p (amino acids 1–195)

With B1 the “stoichiometry of Sly1p–Sed5p–Bos1p–Sec22p–Bet1p in the isolated complex” value (from here on “stoichiometry … in the isolated complex”) [1] was 1 molar ratio (GST–Sec22p = 1.4) and the “stoichiometry N” value [2] was 1.2 per Sed5p.

B2 was tested, and the “stoichiometry N” value (GST–Sec22p [3]) was 0.44 Sed5p per Sec22p, the “stoichiometry N” value (GST–Sec22p [4]) was 0.99 Sed5p per Sec22p and the “stoichiometry N” value (GST–Sec22p [5]) was 0.3 Sed5p per Sec22p.

For B3, the “stoichiometry … in the isolated complex” value (GST–Sec22p [6]) was 1.2 molar ratio (GST–Sec22p = 1.4), the “stoichiometry N” value (GST–Sec22p [3]) was 0.5 Sed5p per Sec22p and the “stoichiometry N” value (GST–Sec22p [4]) was 1.1 Sed5p per Sec22p. For the same binder, the “stoichiometry N” value (GST–Sec22p [5]) was 0.3 Sed5p per Sec22p.

B4: binds [7].

B5 was tested, and the “stoichiometry … in the isolated complex” value (GST–Sec22p [6]) was 0.8 molar ratio (GST–Sec22p = 1.4), the “stoichiometry N” value [8] was 1.4 per Sed5p and the “stoichiometry N” value [2] was 1.3 per Sed5p.

B6: binds [9].

B7 was tested, and the “stoichiometry … in the isolated complex” value (GST–Sec22p [6]) was 1.3 molar ratio (GST–Sec22p = 1.4), the “stoichiometry N” value [8] was 1.3 per Sed5p and the “stoichiometry N” value [2] was 1.5 per Sed5p.

B8 was tested, and the “stoichiometry N” value [1] was 3.3 Sec17p per Sed5p and the “stoichiometry N” value [10] was 2.7 Sec17p per Sed5p.

In the case of B9, the binding result [11] is reported as “binds”, the “stoichiometry N” value [8] is reported as 1.4 per Sed5p and the “stoichiometry N” value [2] is reported as 1.3 per Sed5p.
